Results reported in PMC8298264, “Function of cofactor Akirin2 in the regulation of gene expression in model human neutrophil-like HL60 cells” (Bioscience Reports, 2021).

B1: sp¦Q9Y3F4¦STRAP_HUMAN (protein, UniProt Q9Y3F4 1-350, looked up)
Serine-threonine kinase …: MAMRQTPLTCSGHTRPVVDLAFSGITPYGYFLISACKDGKPMLRQGDTGDWIGTFLGHKGAVWGATLNKDATKAATAAADFTAKVWDAVSGDELMTLAHKHIVKTVDFTQDSNYLLTGGQDKLLRIYDLNKPEAEPKEISGHTSGIKKALWCSEDKQILSADDKTVRLWDHATMTEVKSLNFNMSVSSMEYIPEGEILVITYGRSIAFHSAVSLDPIKSFEAPATINSASLHPEKEFLVAGGEDFKLYKYDYNSGEELESYKGHFGPIHCVRFSPDGELYASGSEDGTLRLWQTVVGKTYGLWKCVLPEEDSGELAKPKIGFPETTEEELEEIASENSDCIFPSAPDVKA
B2: sp¦Q8NC51¦PAIRB_HUMAN (protein, UniProt Q8NC51 2-408, looked up)
SERPINE1 mRNA-binding protein …: PGHLQEGFGCVVTNRFDQLFDDESDPFEVLKAAENKKKEAGGGGVGGPGAKSAAQAAAQTNSNAAGKQLRKESQKDRKNPLPPSVGVVDKKEETQPPVALKKEGIRRVGRRPDQQLQGEGKIIDRRPERRPPRERRFEKPLEEKGEGGEFSVDRPIIDRPIRGRGGLGRGRGGRGRGMGRGDGFDSRGKREFDRHSGSDRSSFSHYSGLKHEDKRGGSGSHNWGTVKDELTESPKYIQKQISYNYSDLDQSNVTEETPEGEEHHPVADTENKENEVEEVKEEGPKEMTLDEWKAIQNKDRAKVEFNIRKPNEGADGQWKKGFVLHKSKSEEAHAEDSVMDHHFRKPANDITSQLEINFGDLGRPGRGGRGGRGGRGRGGRPNRGSRTDKSSASAPDVDDPEAFPALA
B3: sp¦O14745¦NHRF1_HUMAN (protein, UniProt O14745 2-358, looked up)
Na(+)/H(+) exchange …: SADAAAGAPLPRLCCLEKGPNGYGFHLHGEKGKLGQYIRLVEPGSPAEKAGLLAGDRLVEVNGENVEKETHQQVVSRIRAALNAVRLLVVDPETDEQLQKLGVQVREELLRAQEAPGQAEPPAAAEVQGAGNENEPREADKSHPEQRELRPRLCTMKKGPSGYGFNLHSDKSKPGQFIRSVDPDSPAEASGLRAQDRIVEVNGVCMEGKQHGDVVSAIRAGGDETKLLVVDRETDEFFKKCRVIPSQEHLNGPLPVPFTNGEIQKENSREALAEAALESPRPALVRSASSDTSEELNSQDSPPKQDSTAPSSTSSSDPILDFNISLAMAKERAHQKRSSKRAPQMDWSKKNELFSNL
B4: sp¦Q99614¦TTC1_HUMAN (protein, UniProt Q99614 1-292, looked up)
Tetratricopeptide repeat …: MGEKSENCGVPEDLLNGLKVTDTQEAECAGPPVPDPKNQHSQSKLLRDDEAHLQEDQGEEECFHDCSASFEEEPGADKVENKSNEDVNSSELDEEYLIELEKNMSDEEKQKRREESTRLKEEGNEQFKKGDYIEAESSYSRALEMCPSCFQKERSILFSNRAAARMKQDKKEMAINDCSKAIQLNPSYIRAILRRAELYEKTDKLDEALEDYKSILEKDPSIHQAREACMRLPKQIEERNERLKEEMLGKLKDLGNLVLRPFGLSTENFQIKQDSSTGSYSINFVQNPNNNR
B5: sp¦P41218¦MNDA_HUMAN (protein, UniProt P41218 1-407, looked up)
Myeloid cell nuclear …: MVNEYKKILLLKGFELMDDYHFTSIKSLLAYDLGLTTKMQEEYNRIKITDLMEKKFQGVACLDKLIELAKDMPSLKNLVNNLRKEKSKVAKKIKTQEKAPVKKINQEEVGLAAPAPTARNKLTSEARGRIPVAQKRKTPNKEKTEAKRNKVSQEQSKPPGPSGASTSAAVDHPPLPQTSSSTPSNTSFTPNQETQAQRQVDARRNVPQNDPVTVVVLKATAPFKYESPENGKSTMFHATVASKTQYFHVKVFDINLKEKFVRKKVITISDYSECKGVMEIKEASSVSDFNQNFEVPNRIIEIANKTPKISQLYKQASGTMVYGLFMLQKKSVHKKNTIYEIQDNTGSMDVVGSGKWHNIKCEKGDKLRLFCLQLRTVDRKLKLVCGSHSFIKVIKAKKNKEGPMNVN
B6: sp¦P50502¦F10A1_HUMAN (protein, UniProt P50502 1-369, looked up)
Hsc70-interacting protein: MDPRKVNELRAFVKMCKQDPSVLHTEEMRFLREWVESMGGKVPPATQKAKSEENTKEEKPDSKKVEEDLKADEPSSEESDLEIDKEGVIEPDTDAPQEMGDENAEITEEMMDQANDKKVAAIEALNDGELQKAIDLFTDAIKLNPRLAILYAKRASVFVKLQKPNAAIRDCDRAIEINPDSAQPYKWRGKAHRLLGHWEEAAHDLALACKLDYDEDASAMLKEVQPRAQKIAEHRRKYERKREEREIKERIERVKKAREEHERAQREEEARRQSGAQYGSFPGGFPGGMPGNFPGGMPGMGGGMPGMAGMPGLNEILSDPEVLAAMQDPEVMVAFQDVAQNPANMSKYQSNPKVMNLISKLSAKFGGQA
B7: sp¦P12814¦ACTN1_HUMAN (protein, UniProt P12814 1-892, looked up)
Alpha-actinin-1: MDHYDSQQTNDYMQPEEDWDRDLLLDPAWEKQQRKTFTAWCNSHLRKAGTQIENIEEDFRDGLKLMLLLEVISGERLAKPERGKMRVHKISNVNKALDFIASKGVKLVSIGAEEIVDGNVKMTLGMIWTIILRFAIQDISVEETSAKEGLLLWCQRKTAPYKNVNIQNFHISWKDGLGFCALIHRHRPELIDYGKLRKDDPLTNLNTAFDVAEKYLDIPKMLDAEDIVGTARPDEKAIMTYVSSFYHAFSGAQKAETAANRICKVLAVNQENEQLMEDYEKLASDLLEWIRRTIPWLENRVPENTMHAMQQKLEDFRDYRRLHKPPKVQEKCQLEINFNTLQTKLRLSNRPAFMPSEGRMVSDINNAWGCLEQVEKGYEEWLLNEIRRLERLDHLAEKFRQKASIHEAWTDGKEAMLRQKDYETATLSEIKALLKKHEAFESDLAAHQDRVEQIAAIAQELNELDYYDSPSVNARCQKICDQWDNLGALTQKRREALERTEKLLETIDQLYLEYAKRAAPFNNWMEGAMEDLQDTFIVHTIEEIQGLTTAHEQFKATLPDADKERLAILGIHNEVSKIVQTYHVNMAGTNPYTTITPQEINGKWDHVRQLVPRRDQALTEEHARQQHNERLRKQFGAQANVIGPWIQTKMEEIGRISIEMHGTLEDQLSHLRQYEKSIVNYKPKIDQLEGDHQLIQEALIFDNKHTNYTMEHIRVGWEQLLTTIARTINEVENQILTRDAKGISQEQMNEFRASFNHFDRDHSGTLGPEEFKACLISLGYDIGNDPQGEAEFARIMSIVDPNRLGVVTFQAFIDFMSRETADTDTADQVMASFKILAGDKNYITMDELRRELPPDQAEYCIARMAPYTGPDSVPGALDYMSFSTALYGESDL
B8: sp¦O00273¦DFFA_HUMAN (protein, UniProt O00273 1-331, looked up)
DNA fragmentation factor …: MEVTGDAGVPESGEIRTLKPCLLRRNYSREQHGVAASCLEDLRSKACDILAIDKSLTPVTLVLAEDGTIVDDDDYFLCLPSNTKFVALASNEKWAYNNSDGGTAWISQESFDVDETDSGAGLKWKNVARQLKEDLSSIILLSEEDLQMLVDAPCSDLAQELRQSCATVQRLQHTLQQVLDQREEVRQSKQLLQLYLQALEKEGSLLSKQEESKAAFGEEVDAVDTGISRETSSDVALASHILTALREKQAPELSLSSQDLELVTKEDPKALAVALNWDIKKTETVQEACERELALRLQQTQSLHSLRSISASKASPPGDLQNPKRARQDPT
B9: Serine protease 57 (protein, UniProt Q6UWY2 32-283, looked up)
Serine protease 57: AQIIGGHEVTPHSRPYMASVRFGGQHHCGGFLLRARWVVSAAHCFSHRDLRTGLVVLGAHVLSTAEPTQQVFGIDALTTHPDYHPMTHANDICLLRLNGSAVLGPAVGLLRPPGRRARPPTAGTRCRVAGWGFVSDFEELPPGLMEAKVRVLDPDVCNSSWKGHLTLTMLCTRSGDSHRRGFCSADSGGPLVCRNRAHGLVSFSGLWCGDPKTPDVYTQVSAFVAWIWDVVRRSSPQPGPLPGTTRPPGEAA

Test system: human HL60 cells
Test: SWATH-MS proteomics, differential protein representation, akirin2 KO vs WT HL60 cells
Format: cell-based
Protocol: Total proteins were extracted from WT and akirin2 KO HL60 cells using the AllPrep DNA/RNA/Protein Mini Kit (Qiagen) and protein concentration was determined using the BCA Protein Assay with BSA (Sigma–Aldrich) as standard. Protein extracts (150 µg per sample, n=3 biological replicates) from each WT and KO cells were trypsin digested using the FASP Protein Digestion Kit (Expedeon Ltd., Abcam, Cambridge, U.K.) and sequencing grade trypsin (Promega, Madison, WI, U.S.A.) following manufacturer’s recommendations. The resulting peptides were finally desalted on to OMIX Pipette tips C18 (Agilent Technologies, Santa Clara, CA, U.S.A.), dried down and stored at −20 °C until mass spectrometry analysis. […] Three micrograms of each protein digest from the three biological replicates of WT and akirin2 KO HL60 cells were used for the generation of the reference spectral ion library as part of the SWATH-MS analysis.
Peptides were eluted in a 120-min gradient from 5 to 30% solvent B in solvent A followed by 15-min gradient from 30 to 60% solvent B in solvent A (solvent A: 0.1% formic acid in water, solvent B: 0.1% formic acid in acetonitrile) and directly injected into the mass spectrometer for analysis. For IDA experiments, the mass spectrometer was set to scanning full spectra (350–1400 m/z) using 250 ms accumulation time per spectrum, followed by up to 50 MS/MS scans (100–1500 m/z). Candidate ions with a charge state between +2 and +5 counts per second above a minimum threshold of 100 were isolated for fragmentation. One MS/MS spectrum was collected for 100 ms, before adding those precursor ions to the exclusion list for 15 s (mass spectrometer operated by Analyst TF 1.6, AB Sciex). Dynamic background subtraction was turned off. MS/MS analyses were recorded in high-sensitivity mode with rolling collision energy on and a collision energy spread of 5. For SWATH quantitative analysis, six independent samples (three replicates from WT and akirin2 KO HL60 cells, 5 µg each) were subjected to the cyclic DIA of mass spectra using the SWATH variable windows calculator (V 1.0, AB Sciex) and the SWATH acquisition method editor (AB Sciex), similar to established methods. […] For these experiments, a 50-ms survey scan (350–1400 m/z) was acquired at the beginning of each cycle, and SWATH–MS/MS spectra were collected from 100–1500 m/z for 70 ms at high-sensitivity mode, resulting in a cycle time of 3.6 s. Collision energy for each window was determined according to the calculation for a charge +2 ion-centered upon the window with a collision energy spread of 15. To create a spectral library of all the detectable peptides in the samples, the IDA MS raw files were combined and subjected to database search in unison using ProteinPilot software v. 5.0.1 (AB Sciex) with the Paragon algorithm. […] The detected protein threshold was set at 0.05. An independent false discovery rate (FDR) analysis, using the target–decoy approach provided by Protein Pilot (AB Sciex; https://sciex.com/products/software/proteinpilot-software), was used to assess the quality of identifications. Positive identifications were considered when identified proteins reached 1% of global FDR. […] Global normalization was performed according to the Total Area Sums (TAS) of all detected proteins in the samples. […] Heatmaps were prepared using the Heatmapper (http://www.heatmapper.ca/expression/) with average linkage and Euclidean distance measurement method.

[1] = Over-represented in KO, KO vs WT HL60 cells
[2] = akirin2 KO vs WT HL60 cells, sheet "Over-represented in KO"
[3] = SWATH-MS, akirin2 KO vs WT HL60 cells, over-represented in KO

Molecule	Fold Change [1]	Log (Fold Change) [1]	further results
B1	1.284	0.1086	
B2	1.286	0.1092	
B3	1.293	0.1116	
B4	1.292	0.1114	
B5	1.264	0.1017	
B6			Fold Change [2]: 1.2518; Log (Fold Change) [2]: 0.09753
B7	1.274	0.1053	
B8	1.2886	0.1101	
B9			Fold Change [3]: 3.338; Log (Fold Change) [3]: 0.5235
